How the values were obtained:
[1] = molecular target: FcεRI alpha chain on CHO 3D10 cells (UniProt P12319); test: FACS, CHO 3D10 cells, 5 ug/ml
[2] = molecular target: FcεRII (CD23) on IM9 B cells (human) (UniProt P06734); test: FACS, IM9 cells, 5 ug/ml
[3] = molecular target: FcεRII (CD23) on IM9 B cells (human) (UniProt P06734); test: FACS, IM9 cells, 10 ug/ml
[4] = molecular target: FcεRI alpha chain on CHO 3D10 cells (UniProt P12319); test: FACS, CHO 3D10 cells, 0.5 ug/ml
[5] = molecular target: FcεRI alpha chain on CHO 3D10 cells (UniProt P12319); test: FACS, CHO 3D10 cells, 10 ug/ml
[6] = molecular target: FcεRII (CD23) on IM9 B cells (human) (UniProt P06734); test: FACS, IM9 cells, 0.1 ug/ml
[7] = molecular target: FcεRI alpha chain on CHO 3D10 cells (UniProt P12319); test: FACS, CHO 3D10 cells, 0.1 ug/ml

Chain of FcεRI alpha chain on CHO 3D10 cells (P12319 26-257 limits assumed): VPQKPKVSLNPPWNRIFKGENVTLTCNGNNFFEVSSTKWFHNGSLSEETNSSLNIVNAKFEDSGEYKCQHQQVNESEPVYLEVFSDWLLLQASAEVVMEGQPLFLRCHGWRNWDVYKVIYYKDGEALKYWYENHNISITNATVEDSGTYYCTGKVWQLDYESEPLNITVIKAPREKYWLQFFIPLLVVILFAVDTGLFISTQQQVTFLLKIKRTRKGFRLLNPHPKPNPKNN
Chain of FcεRII (CD23) on IM9 B cells (human) (P06734 whole entry): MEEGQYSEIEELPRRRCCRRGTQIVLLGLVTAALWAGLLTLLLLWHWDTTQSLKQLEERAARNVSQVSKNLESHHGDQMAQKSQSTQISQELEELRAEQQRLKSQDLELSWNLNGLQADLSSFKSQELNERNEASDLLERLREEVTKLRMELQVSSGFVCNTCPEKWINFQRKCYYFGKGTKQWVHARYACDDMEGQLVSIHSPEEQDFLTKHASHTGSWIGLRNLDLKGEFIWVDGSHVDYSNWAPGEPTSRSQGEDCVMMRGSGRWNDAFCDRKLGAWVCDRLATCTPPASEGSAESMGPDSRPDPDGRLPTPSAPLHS

Work on “human IgE purified from U266B1 cells (from UniProt P01854 1-428) (antibody)” yielded a % CHO 3D10(+) [1] of 89.9%, a % IM9 (+) [2] of 82.6% and a % IM9 (+) [3] of 92.5%. It also gave a % CHO 3D10(+) [4] of 59.6%, a % CHO 3D10(+) [5] of 90.3% and a % IM9 (+) [6] of 1.7%. For the same substance, the % CHO 3D10(+) [7] was 15.8%.

Reference: US20070020258A1
